Experimental data: the supplement of paper PMC12338614
± gives the uncertainty stated by the source.

B1: library; numbered along this chain (parent)
chain: MEVVDPQQLGMFTEGELMSVGMDTFIHRIDSTEVIYQPRRKRAKLIGKYLMGDLLGEGSYGKVKEVLDSETLCRRAVKILKKKKLRRIPNGEANVKKEIQLLRRLRHKNVIQLVDVLYNEEKQKMYMVMEYCVCGMQEMLDSVPEKRFPVCQAHGYFCQLIDGLEYLHSQGIVHKDIKPGNLLLTTGGTLKISDLGVAEALHPFAADDTCRTSQGSPAFQPPEIANGLDTFSGFKVDIWSAGVTLYNITTGLYPFEGDNIYKLFENIGKGSYAIPGDCGPPLSDLLKGMLEYEPAKRFSIRQIRQHSWFRKKHPPAEAPVPIPPSPDTKDRWRSMTVVPYLEDLHGADEDEDLFDIEDDIIYTQDFTVPGQVPEEEASHNGQRRGLPKAVCMNGTEAAQLSTKSRAEGRAPNPARKACSASSKIRRLSACKQQ

Variants of: B1
Assay: STK11 functional score (HeLa growth suppression), rescaled enrichment; synonymous median = 1, nonsense median = 0 (normalised score)
Settings: with HeLa; variant type: missense
Outline: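 Codon-randomised (POPCode) libraries of codon-optimised STK11 were integrated by Bxb1 at an AAVS1 landing pad in HeLa, in three regions each transfected three times. Integrants (BFP-negative, mCherry-positive) were FACS-sorted 4–5 days after electroporation and grown about two weeks; tiled gDNA amplicons were sequenced on NextSeq (~2 million reads per tile). The functional score is the wild-type-corrected post/pre-selection log ratio, rescaled to synonymous and nonsense medians, merged over codons and replicate transfections, with bootstrapped error.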

Row | Variant | STK11 functional score
1 | K388Y | 1.07 ± 0.35
2 | M22Y | 1.57 ± 0.096
3 | A273P | 1.4 ± 0.28
4 | R75C | 1.55 ± 0.091
5 | E70Y | 1.14 ± 0.29
6 | K191F | 0.589 ± 0.19
7 | K191L | 0.262 ± 0.11
8 | L117E | 1.45 ± 0.19
9 | L117P | 0.386 ± 0.24
10 | V320I | 1.59 ± 0.17
11 | V337I | 1.48 ± 0.16
12 | D284E | 1 ± 0.29
13 | D284V | 0.716 ± 0.093
14 | D284H | 1.14 ± 0.31
15 | E130P | 0.365 ± 0.27
16 | E130V | 0.458 ± 0.082
17 | R425E | 1.23 ± 0.47
18 | C132R | -0.197 ± 0.084
19 | P38D | 1.7 ± 0.3
20 | P38N | 0.557 ± 0.099
21 | P38E | 1.36 ± 0.39

Row | Variant | STK11 functional score
22 | P38H | 1.11 ± 0.58
23 | D358W | 1.46 ± 0.16
24 | D358E | 0.693 ± 0.27
25 | D358Q | 1.49 ± 0.3
26 | V390P | 1.52 ± 0.27
27 | V95F | 0.945 ± 0.26
28 | K311N | 0.848 ± 0.47
29 | N94T | 1.27 ± 0.18
30 | D208E | 1.38 ± 0.51
31 | D208Q | 1.58 ± 0.3
32 | I161L | 0.912 ± 0.23
33 | L113V | 0.44 ± 0.1
34 | L113A | 0.492 ± 0.17
35 | L113R | 0.684 ± 0.14
36 | I267P | 0.26 ± 0.21
37 | A377Y | 1.49 ± 0.16
38 | P314R | 1.26 ± 0.22
39 | A414C | 1.59 ± 0.29
40 | A414R | 1.58 ± 0.31
41 | A417V | 0.845 ± 0.15
42 | E57F | 0.821 ± 0.094

Row | Variant | STK11 functional score
43 | E57V | 0.968 ± 0.17
44 | K122D | 1.52 ± 0.36
45 | F366L | 1.16 ± 0.27
46 | M139G | 0.563 ± 0.088
47 | M139V | 0.965 ± 0.098
48 | L427S | 1.55 ± 0.11
49 | A429V | 1.47 ± 0.33
50 | N119L | 1.17 ± 0.27
51 | I238S | 0.58 ± 0.16
52 | G171I | 1.46 ± 0.18
53 | S169I | 0.231 ± 0.09
54 | S378P | 1.38 ± 0.24
55 | S378M | 1.11 ± 0.13
56 | I111T | 0.687 ± 0.27
57 | I111M | 0.886 ± 0.36
58 | I111L | 0.392 ± 0.14
59 | K48W | 0.798 ± 0.087
60 | K48R | 1.42 ± 0.54
61 | R384N | 1.54 ± 0.21
62 | R384S | 1.53 ± 0.26
63 | E138L | 1.15 ± 0.22

Row | Variant | STK11 functional score
64 | L183Y | 1.57 ± 0.1
65 | I99R | 0.708 ± 0.16
66 | G394K | 1.6 ± 0.28
67 | L50V | 0.846 ± 0.19
68 | E317F | 0.542 ± 0.14
69 | E317L | 1.34 ± 0.27
70 | M18V | 0.413 ± 0.24
71 | V63Q | 0.451 ± 0.38
72 | K124W | 0.166 ± 0.11
73 | L344E | 1.28 ± 0.53
74 | L344H | 1.14 ± 0.19
75 | T71E | 1.37 ± 0.42
76 | K262Y | 1.29 ± 0.3
77 | V173W | 0.343 ± 0.097
78 | V173A | 0.314 ± 0.31
79 | R74P | 1.27 ± 0.19
80 | V143F | 1.01 ± 0.28
81 | K44I | 1.16 ± 0.26
82 | L182H | -0.198 ± 0.33
83 | L182F | 1.03 ± 0.16
